Results taken from US20100298225A1, “PEPTIDE GAP JUNCTION MODULATORS” (priority 2007, published 2010).
“Also recorded” adds a separate entry of the source.

Key:
[1] = molecular target: T1, carboxyl terminal domain (CT) of Cx43 (Rattus norvegicus, UniProt P08050); assay: Peptide binding to Cx43CT determined using surface plasmon resonance (SPR); settings: for SPR respons: immobilised recombinant Cx43CT; for SPR data normalised on Mw: value = (SPRrespons*100)/Mw
T1 construct: GST (N, cleaved yes); made in house; host or cells: E. coli BL-21
Experimental: 277(39):36706-36714 (2002), which is hereby incorporated by reference in its entirety. Briefly, cDNA derived from rat Cx43 was inserted into pGEX-6P-2 (Amersham) and expressed in E. coli (BL-21). The resultant GST-fusion protein was cleaved from the GST PreScission Protease® (Amersham Biosciences). The recombinant product after cleavage contained the sequence 255-382 of rCx43 preceded by four additional amino acids (GPLG). Protein concentration was measured using the Bio-Rad DC Protein Assay. Protein purity was assessed by SDS-PAGE.
Recombinant Cx43CT was covalently bound to a carboxylmethyl dextran matrix (Salamon et al., “Surface Plasmon Resonance Spectroscopy as a Tool for Investigating the Biochemical and Biophysical Properties of Membrane Protein Systems. II: Applications to Biological Systems,” Biochim. Biophys. Acta 1331(2):131-152 (1997), which is hereby incorporated by reference in its entirety). Specific peptides were presented and, when feasible, dissociation constants (KD) were calculated from the time course of binding and unbinding of the ligand, using a 1:1 (Langmuir) association and dissociation kinetic model (Biacore software package). In both phases (association and dissociation), the first 5-8 seconds of recording were not included in the fit, to avoid artifacts resulting from peptide distribution within the flow cells (Lang et al., “Surface Plasmon Resonance as a Method to Study the Kinetics and Amplitude of Protein-protein Binding,” in PRACTICAL METHODS IN CARDIOVASCULAR RESEARCH 936-947 (Stefan Dhein, Friedrich Wilhelm Mohr & Mario Delmar eds., 2005), which is hereby incorporated by reference in its entirety).
The peptides shown in table 2 and 3 were tested for binding to the carboxyl terminal domain (CT) of Cx43 using Surface Plasmon Resonance (“SPR”). SPR is a method that was used to identify the original RXPE sequence (Shibayama et al., “Identification of a Novel Peptide that Interferes with the Chemical Regulation of Connexin-43,” Circ. Res. 98:1365-72 (2006)). The amplitude of the response is also a function of the mass of the ligate, and the normalized data according to the individual peptide Mw's are shown in table 3.

[2] = molecular target: T2, Cx43-expressing N2a cells (Rattus norvegicus, UniProt P08050); assay: Dual patch clamp: octanol-induced uncoupling, junctional conductance between cell pairs; type: cell-based; settings: for Ability to re-open gap junctions closed by the uncoupler (revert uncoupled cells to coupled) / Effect on octanol-induced uncoupling: 0.1 mM peptide in internal pipette solution, octanol superfusion; for Effect on octanol-induced uncoupling: Vj 60 mV; for Average junctional conductance (Gj) as a function of time after onset of octanol: 0.1 mM peptide in pipette, Gj relative to value before octanol, N=7 pairs; for Decrease in Gj three minutes after onset of octanol: junctional current traces of a cell pair, peptide in internal pipette solution; for Cell pairs that remained coupled / uncoupled following onset of octanol superfusion: seven cell pairs, peptide in pipette, uncoupling = zero junctional current at 60-mV pulse
T2 construct: expressed in transfected cells; host or cells: N2a (neuroblastoma) cells
Experimental: Experiments were conducted on N2a (Neuroblastoma) cells. Cx43 was expressed either in a lac-switch stable system (induced by 0.1-1.0 mM of IPTG (Zhong et al., “LacSwitch II Regulation of Connexin43 cDNA Expression Enables Gap-junction Single-channel Analysis,” Biotechniques 34(5):1034-1034, 1041-1044, 1046 (2003), which is hereby incorporated by reference in its entirety)) or transiently using an IRES plasmid coding for eGFP (Seki et al., “Modifications in the Biophysical Properties of Connexin43 Channels by a Peptide of the Cytoplasmic Loop Region,” Circ. Res. 95(4):e22-e28 (2004); Seki et al., “Loss of Electrical Communication, but Not Plaque Formation, After Mutations in the Cytoplasmic Loop of Connexin43,” Heart Rhythm. 1(2):227-233 (2004), which are hereby incorporated by reference in their entirety). M257 (a mutant of Cx43 truncated at amino acid 257 (Morley et al., “Intramolecular Interactions Mediate pH Regulation of Connexin43 Channels,” Biophys. J. 70(3):1294-1302 (1996), which is hereby incorporated by reference in its entirety)) was transiently expressed in N2a cells also using an eGFP-containing IRES plasmid. Cells were placed on the stage of an inverted microscope equipped for epifluorescence (Nikon Diaphoto200, Filter: 520 to 560 nm). Junctional current (I) was recorded from eGFP-positive cell pairs in a dual-whole-cell voltage clamp configuration (holding potentials: −40 mV; transjuctional voltage, Vj, +[…]; step duration, 10-30 seconds). Patch pipettes were filled with a cesium-containing solution (Seki et al., “Modifications in the Biophysical Properties of Connexin43 Channels by a Peptide of the Cytoplasmic Loop Region,” Circ. Res. 95(4):e22-e28 (2004); Seki et al., “Loss of Electrical Communication, but Not Plaque Formation, After Mutations in the Cytoplasmic Loop of Connexin43,” Heart Rhythm. 1(2):227-233 (2004), which are hereby incorporated by reference in their entirety). For the low pH experiments, HEPES was replaced by MES (10 mM). Pipette resistance was 4.0-6.0MΩ. Synthetic peptides were diluted in the pipette solution to a final concentration of 0.1 mM. During recording, cells were kept at room temperature in a cesium-containing solution (Seki et al., “Modifications in the Biophysical Properties of Connexin43 Channels by a Peptide of the Cytoplasmic Loop Region,” Circ. Res. 95(4):e22-e28 (2004); Seki et al., “Loss of Electrical Communication, but Not Plaque Formation, After Mutations in the Cytoplasmic Loop of Connexin43,” Heart Rhythm. 1(2):227-233 (2004), which are hereby incorporated by reference in their entirety). For some experiments, octanol (2.0 mM) was superfused during recording. Data acquisition and recording, and criteria for single channel detection were as reported in Seki et al., “Modifications in the Biophysical Properties of Connexin43 Channels by a Peptide of the Cytoplasmic Loop Region,” Circ. Res. 95(4):e22-e28 (2004) and Seki et al., “Loss of Electrical Communication, but Not Plaque Formation, After Mutations in the Cytoplasmic Loop of Connexin43,” Heart Rhythm. 1(2):227-233 (2004), which are hereby incorporated by reference in their entirety.
Compounds were tested for their ability to interfere with octanol-induced uncoupling. Compounds are tested for their ability to interfere with acidification induces uncoupling.
Experiments were modeled after those described in Shibayama et al (2006). Junctional conductance between Cx43-expressing N2a cell pairs was assessed using conventional dual patch clamp. Peptides were diluted in the patch pipette solution and the cells will be exposed either to octanol or to a low intracellular pH. Control experiments were carried out in the absence of the compound. The results are shown in FIGS. 3A-E, which are graphs of the time course of octanol-induced changes in coupling recorded from Cx43-expressing N2a cells. FIGS. 3A-E relate to peptides 2517, 2518, 2529, 2520 and 2624 respectively. […]

T1 sequence (P08050 255-382): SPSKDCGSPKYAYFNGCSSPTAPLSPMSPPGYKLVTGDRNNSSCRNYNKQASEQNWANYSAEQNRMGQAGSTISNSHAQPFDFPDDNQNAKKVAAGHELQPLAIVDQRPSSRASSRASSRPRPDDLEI
T2 sequence (P08050 whole entry, the tested form may be a part): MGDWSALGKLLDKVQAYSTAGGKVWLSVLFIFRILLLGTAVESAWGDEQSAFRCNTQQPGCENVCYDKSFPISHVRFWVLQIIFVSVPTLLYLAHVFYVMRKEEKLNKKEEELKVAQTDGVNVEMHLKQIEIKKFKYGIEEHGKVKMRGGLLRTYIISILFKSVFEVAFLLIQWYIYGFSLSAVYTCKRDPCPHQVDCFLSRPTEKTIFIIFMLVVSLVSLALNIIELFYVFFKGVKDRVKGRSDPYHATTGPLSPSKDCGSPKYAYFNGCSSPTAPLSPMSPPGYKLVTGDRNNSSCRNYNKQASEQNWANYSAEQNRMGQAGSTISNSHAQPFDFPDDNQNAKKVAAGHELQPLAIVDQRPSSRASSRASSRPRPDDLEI

Substance | SPR respons ([1]; peptide 25 uM) [arbitrary units] | SPR respons ([1]; peptide 100 uM) [arbitrary units] | SPR respons ([1]; peptide 250 uM) [arbitrary units] | SPR respons ([1]; peptide 500 uM) [arbitrary units] | SPR respons ([1]; peptide 1 mM) [arbitrary units] | Ability to re-open gap junctions closed by the uncoupler (revert uncoupled cells to coupled) [2] | Effect on octanol-induced uncoupling [2] | Average junctional conductance (Gj) as a function of time after onset of octanol [2] | Decrease in Gj three minutes after onset of octanol [2] | Cell pairs that remained coupled / uncoupled following onset of octanol superfusion [2] | SPR data normalised on Mw ([1]; peptide 500 uM) | SPR data normalised on Mw ([1]; peptide 1 mM)
Ac-Arg-Arg-Asn-Tyr-Ala-Val-Pro-Phe-Arg-Arg-Asn-Tyr-NH2 (Ac-RRNYAVPFRRNY-NH2) [Compound 2511] | 16.2 | 90.5 | 214.2 | 389.6 | 691.5 | – | – | – | – | – | – | –
Ac-Arg-Arg-Asn-Tyr-Gly-Gly-Gly-Arg-Arg-Asn-Tyr-NH2 (Ac-RRNYGGGRRNY-NH2) [Compound 2509] | 21.5 | 62.5 | 148.5 | 280.8 | 478.9 | – | – | – | – | – | – | –
Ac-Arg-Arg-Asn-Tyr-Gly-Gly-Gly-Ser-Ala-Val-Pro-Phe-Tyr-Arg-Arg-Asn-Tyr-NH2 (Ac-RRNYGGGSAVPFYRRNY-NH2) [Compound 2508] | 31.1 | 121.9 | 284.6 | 546.8 | 1024.5 | – | – | – | – | – | – | –
Ac-Arg-Arg-Asn-Tyr-Gly-Gly-Gly-Ser-Ala-Val-Pro-Phe-Tyr-Ser-His-Ser-Arg-Arg-Asn-Tyr-Gly-Gly-Gly-Ser-Ala-Val-Pro-Phe-Tyr-Ser-His-Ser-Arg-Arg-Asn-Tyr-Gly-Gly-Gly-Ser-Ala-Val-Pro-Phe-Tyr-Ser-His-Ser-Arg-Arg-Asn-Tyr-NH2 (Ac-RRNYGGGSAVPFYSHSRRNYGGGSAVPFYSHSRRNYGGGSAVPFYSHSRRNY-NH2) [Compound 2372] | – | – | – | – | – | able to revert uncoupled cells to couple cells; also recorded: re-open gap junctions that were initially closed by the uncoupler | prevented octanol-induced uncoupling | a slight decrease in Gj was apparent; also recorded: decreased at first and then increased | no or only a minor decrease in Gj | none of the cell pairs exposed to 2372 uncoupled | – | –
Ac-Arg-Arg-Asn-Tyr-Gly-Gly-Gly-Ser-Ala-Val-Pro-Phe-Tyr-Ser-His-Ser-Arg-Arg-Asn-Tyr-Gly-Gly-Gly-Ser-Ala-Val-Pro-Phe-Tyr-Ser-His-Ser-Arg-Arg-Asn-Tyr-NH2 (Ac-RRNYGGGSAVPFYSHSRRNYGGGSAVPFYSHSRRNY-NH2) [Compound 2371] | – | – | – | – | – | able to revert uncoupled cells to couple cells; also recorded: re-open gap junctions that were initially closed by the uncoupler | prevented octanol-induced uncoupling | decreased at first and then increased | no or only a minor decrease in Gj | uncoupled and then recoupled | – | –
Ac-Arg-Arg-Asn-Tyr-Gly-Gly-Ser-Ala-Val-Pro-Phe-Tyr-Ser-His-Arg-Arg-Asn-Tyr-NH2 (Ac-RRNYGGSAVPFYSHRRNY-NH2) [Compound 2510] | 40.3 | 176.2 | 331.5 | 643.3 | 1188 | – | – | – | – | – | – | –
Ac-Arg-Arg-Asn-Tyr-NH2 (Ac-RRNY-NH2) [Compound 2498] | – | – | – | 50.9 | 91 | – | – | – | – | – | 7.9 | 14.0
Ac-Arg-Arg-Asn-Tyr-Ser-Ala-Val-Pro-Phe-Tyr-Ser-His-Ser-Arg-Arg-Asn-Tyr-NH2 (Ac-RRNYSAVPFYSHSRRNY-NH2) [Compound 2506] | 51.7 | 117.2 | 327 | 561.8 | 1172.8 | – | – | – | – | – | – | –
Ac-Arg-Arg-Asn-Tyr-Ser-His-Ser-Arg-Arg-Asn-Tyr-NH2 (Ac-RRNYSHSRRNY-NH2) [Compound 2507] | 42.3 | 113.5 | 254.2 | 438.5 | 703.2 | – | – | – | – | – | – | –
Ac-Arg-Arg-Asn-Tyr-Val-Pro-Arg-Arg-Asn-Tyr-NH2 (Ac-RRNYVPRRNY-NH2) [Compound 2512] | 14.8 | 50.7 | 117.2 | 227.3 | 394.7 | – | – | – | – | – | – | –
Ac-Tyr-Asn-Arg-Arg-Gly-Gly-Gly-Ser-Ala-Val-Pro-Phe-Tyr-Ser-His-Ser-Tyr-Asn-Arg-Arg-NH2 (Ac-YNRRGGGSAVPFYSHSYNRR-NH2) [Compound 2496] | 67.7 | 155.9 | 358.1 | 738.6 | 1402 | – | – | – | – | – | – | –
Ac-Tyr-Asn-Arg-Arg-NH2 (Ac-YNRR-NH2) [Compound 2499] | – | – | – | – | 69.4 | – | – | – | – | – | – | 10.7
